Reference: patent US20060166860A1, “Zinc transporter compositions for the treatment of cardiovascular diseases” (priority 2002, published 2006)
Entries after “also recorded” stand apart in the source; their conditions may differ.

Experiments:
intracellular zinc = assay: Fura-2 fluorescence signal of intracellular zinc in HEK 293 cells; type: cell-based, human; conditions: HEK 293 cells exposed to zinc, then TPEN (FIG. 1, FIG. 3 inset)
Description: (§1) Cells were incubated for 30 minutes with 5 μM of the ratiometric dye Fura-2-AM (TEF Labs) in 0.1% BSA-sodium Ringer's solution. Fura-2-AM binds zinc with very high affinity. After incubation, the cells were washed in Ringer's solution and the cover glass mounted on a holder that allowed the perfusion of liquids into the cells. Signals resulting from Ca^+2 or Zn^+2 changes were distinguished by using the intracellular zinc chelator TPEN. Changes in intracellular cation concentration were monitored by a single cell imaging system, consisting of a Zeiss Axiovert 100, inverted microscope, Polychrome II monochromator (TILL Photonics) and a cooled CCD (PCO). The data was acquired and processed by Axon Imaging Workbench 2, Excel and KleidaGraph. Fura-2 was excited at 340 nm and 380 nm and the image obtained with a 510 nm long-pass filter. The data was analyzed post acquisition, by selecting single cells (30-50) from the field of view and recording their activity.
To measure the accumulation of intracellular zinc, HEK 293 cells were superfused with Ca-free, zinc-containing Ringer solution, and the […] of Fura-2 was evaluated. Fura-2 is a highly sensitive probe for changes in intracellular Zn^2+ concentration.

LTCC [1] = assay: Zinc influx in astrocytes pre-treated with zinc; type: cell-based; conditions: astrocytes pre-treated with 20, 50 or 100 μM zinc for 24 or 48 hours (FIG. 10)
Description: Cells were superfused with a Ringer's solution containing: 120 mM NaCl, 5 mM KCl, 20 mM glucose, 10 mM Hepes, 0.5 mM MgCl, 1.8 mM CaCl2 at pH 7.4. For depolarization experiments aimed to fully activate the LTCC, 45 mM NaCl were replaced with 45 mM KCl. ZnSO4 was added at the indicated concentration to this solution.
as §1, with “Fura-2 was excited at 340 nm and 380 nm and the image obtained with a 510 nm long-pass filter.” left out
Astrocytes were pre-treated with 20, 50 or 100 μM of zinc for 24 or 48 hours, and subsequent rates of zinc influx were determined. […]

ZnT-1 = ZnT-1 expression in cultured brain astrocytes by Western Blot; type: cell-based; conditions: 20 and 50 μM Zn for 12 hours (FIG. 9)
Description: (§2) Western Blots were carried out in the classical method described in Molecular Cloning—A laboratory manual by Sambroock et al., Cold Spring Harbor Laboratory Press, 2nd edition, 1989.
In astrocytes, zinc influx is mainly mediated by the LTCC. Astrocytes were treated with sub-lethal amounts (20 and 50 μM) of Zn for 12 hours, and ZnT-1 expression evaluated by Western Blot (FIG. 9b).

LTCC [2] = assay: Immunoprecipitation with ZnT-1 antibody and Western blot with LTCC antibody, cardiac tissue; type: binding; conditions: mouse cardiac tissue expressing both ZnT-1 and LTCC (FIG. 11)
Description: as §2
(§3) Immunopercipitation using ZnT-1 antibody followed by Western blot with LTCC antibody was performed.

L-type Ca channels = assay: Ca influx into depolarized PC12 cells expressing endogenous L-type Ca channels; type: cell-based; conditions: ZnT-1 transfected vs control PC12 cells, 1.8 mM calcium, high K+ (FIG. 8)
Description: (§4) PC12 and human embryonic kidney (HEK) 293 cells were grown in DMEM medium (Sigma) as described [Montrose Rafizadeh, C. et al. (1997) J. Cell Physiol. 170:299-308], and seeded on cover slides for 1-2 days prior to measurements.
(§5) HEK 293 cells were transiently transfected with 3 μg of plasmid containing ZnT-1 (kindly provided by Dr. R. D. Palmiter, Howard Hughes Medical Institute, University of Washington, Seattle, Wash.) or vector alone, using the calcium precipitation method as described [Sekler, I. et al. (1995) J Biol. Chem. 270:11251-6]. Pherochromocytoma PC12 cells were co-transfected with ZnT-1 or EYFP (Clontech) for control, using the Fugene-6 reagent (Roche). Measurements were performed 36-48 hours following transfection.
Cells were superfused with a Ringer's solution containing: 120 mM NaCl, 5 mM KCl, 20 mM glucose, 10 mM Hepes, 0.5 mM MgCl, 1.8 mM CaCl2 at pH 7.4. […]
(§6) Cells were incubated for 30 minutes with 5 μM of the ratiometric dye Fura-2-AM (TEF Labs) in 0.1% BSA-sodium Ringer's solution. […] Changes in intracellular cation concentration were monitored by a single cell imaging system, consisting of a Zeiss Axiovert 100, inverted microscope, Polychrome II monochromator (TILL Photonics) and a cooled CCD (PCO). […] The data was analyzed post acquisition, by selecting single cells (30-50) from the field of view and recording their activity. […]

LTCC [3] = assay: LTCC expression by immunoblot, PC12 cells endogenously expressing LTCC; type: cell-based; conditions: presence or absence of ZnT-1 (FIG. 7)
Description: as §2
(§7) Thus, ZnT-1 putative regulation of LTCC is likely to be at the functional level, and not at the expression level.

LTCC [4] = assay: LTCC expression by immunoblot, HEK 293 cells transfected with LTCC; type: cell-based, human; conditions: presence or absence of ZnT-1 (FIG. 7)
Description: as §2, §7

LTCC [5] = assay: Immunoprecipitation with ZnT-1 antibody and Western blot with LTCC antibody, HEK 293 cells; type: binding, human; conditions: HEK 293 cells co-transfected with LTCC and ZnT-1 (FIG. 11)
Description: as §2, §3

HEK 293 cells = assay: Zinc efflux in HEK 293 cells transfected with ZnT-1; type: cell-based, human; conditions: cells transfected with ZnT-1 vs non-transfected (FIG. 3)
Description: as §4, §5
Cells were incubated for 30 minutes with 5 μM of the ratiometric dye Fura-2-AM (TEF Labs) in 0.1% BSA-sodium Ringer's solution. Fura-2-AM binds zinc with very high affinity. […] Changes in intracellular cation concentration were monitored by a single cell imaging system, consisting of a Zeiss Axiovert 100, inverted microscope, Polychrome II monochromator (TILL Photonics) and a cooled CCD (PCO). […] The data was analyzed post acquisition, by selecting single cells (30-50) from the field of view and recording their activity.

L-type Ca channel (LTCC) = assay: Zinc influx into HEK 293 cells, Fura-2 fluorescence; type: cell-based, human; conditions: control vs ZnT-1 transfected HEK 293 cells, 400 μM zinc (FIG. 4a)
Description: as §4
as §5, with “transfection. […]” for “transfection.”
as §6
Control and ZnT-1 transfected HEK 293 cells were exposed to 400 μM zinc, and the rate of zinc influx was monitored over time (FIG. 4a-b).

LTCC [6] = assay: Zinc influx into HEK 293 cells transfected with LTCC alone or with ZnT-1; type: cell-based, human
Description: as §4
as §5, with “transfection. […]” for “transfection.”
Cells were incubated for 30 minutes with 5 μM of the ratiometric dye Fura-2-AM (TEF Labs) in 0.1% BSA-sodium Ringer's solution. […] Changes in intracellular cation concentration were monitored by a single cell imaging system, consisting of a Zeiss Axiovert 100, inverted microscope, Polychrome II monochromator (TILL Photonics) and a cooled CCD (PCO). […] The data was analyzed post acquisition, by selecting single cells (30-50) from the field of view and recording their activity.
Rates of zinc influx into HEK293 cells transfected with LTCC only or co-transfected with LTCC and ZnT-1 were measured. […]

## c1ccc(CN(CCN(Cc2ccccn2)Cc2ccccn2)Cc2ccccn2)nc1 [TPEN, tetrakis-(2-pyridylmethyl)ethylenediamine]
Intracellular zinc
  Fura-2 fluorescence signal: lowered the fluorescence signal; also recorded: eliminated

## [Zn+2] [Zinc, ZnSO4]
LTCC [1]
  rate of zinc influx: reduction of zinc influx
ZnT-1; listed as Zn^2+
  ZnT-1 expression: induced by Zn^2+ in a dose-dependent manner
ZnT-1; listed as Zn^+2
  ZnT-1 expression: induced by Zn^+2 in a dose-dependent manner

B1: ZnT-1: protein encoded by the gene ZnT-1, originally described as a zinc transporter; GenBank Accession No. U17132; expressed by transfection (protein, UniProt Q9Y6M5 1-507, looked up)
Proton-coupled zinc …: MGCWGRNRGRLLCMLALTFMFMVLEVVVSRVTSSLAMLSDSFHMLSDVLALVVALVAERFARRTHATQKNTFGWIRAEVMGALVNAIFLTGLCFAILLEAIERFIEPHEMQQPLVVLGVGVAGLLVNVLGLCLFHHHSGFSQDSGHGHSHGGHGHGHGLPKGPRVKSTRPGSSDINVAPGEQGPDQEETNTLVANTSNSNGLKLDPADPENPRSGDTVEVQVNGNLVREPDHMELEEDRAGQLNMRGVFLHVLGDALGSVIVVVNALVFYFSWKGCSEGDFCVNPCFPDPCKAFVEIINSTHASVYEAGPCWVLYLDPTLCVVMVCILLYTTYPLLKESALILLQTVPKQIDIRNLIKELRNVEGVEEVHELHVWQLAGSRIIATAHIKCEDPTSYMEVAKTIKDVFHNHGIHATTIQPEFASVGSKSSVVPCELACRTQCALKQCCGTLPQAPSGKDAEKTPAVSISCLELSNNLEKKPRRTKAENIPAVVIEIKNMPNKQPESSL
notes: protein encoded by the gene ZnT-1, originally described as a zinc transporter; expressed by transfection
LTCC [2]
  co-immunoprecipitation of ZnT-1 with LTCC: A similar effect; also recorded: reveals a band
L-type Ca channels
  rate of Ca influx: inhibits the rate of Ca influx
LTCC [3]
  LTCC expression level: Neither cell type showed changes; also recorded: not changed; also recorded: without changing LTCC expression
LTCC [4]
  LTCC expression level: Neither cell type showed changes; also recorded: not changed
LTCC [5]
  co-immunoprecipitation of ZnT-1 with LTCC: much higher co-immunopercipitation; also recorded: reveals a band
HEK 293 cells
  zinc efflux: not accelerated
L-type Ca channel (LTCC)
  rate of zinc influx: attenuated
LTCC [6]; HEK 293, co-expression of LTCC and ZnT-1 vs LTCC alone and non-transfected control (FIG. 6)
  zinc influx: reduction in the zinc influx to levels comparable to control; also recorded: reduction in the cation influx to levels comparable to control
LTCC [6]; HEK293 co-transfected with LTCC and ZnT-1 vs LTCC alone (FIG. 4c)
  reduction in rate of zinc permeation through LTCC: 5 fold
